Data taken from patent publication US20100062462.
Where a chain is given by its changes, count along the chain named.

Legend:
[1] = test system: T1, Flag-procaspase-8-Myc fusion polypeptide
T1 sequence: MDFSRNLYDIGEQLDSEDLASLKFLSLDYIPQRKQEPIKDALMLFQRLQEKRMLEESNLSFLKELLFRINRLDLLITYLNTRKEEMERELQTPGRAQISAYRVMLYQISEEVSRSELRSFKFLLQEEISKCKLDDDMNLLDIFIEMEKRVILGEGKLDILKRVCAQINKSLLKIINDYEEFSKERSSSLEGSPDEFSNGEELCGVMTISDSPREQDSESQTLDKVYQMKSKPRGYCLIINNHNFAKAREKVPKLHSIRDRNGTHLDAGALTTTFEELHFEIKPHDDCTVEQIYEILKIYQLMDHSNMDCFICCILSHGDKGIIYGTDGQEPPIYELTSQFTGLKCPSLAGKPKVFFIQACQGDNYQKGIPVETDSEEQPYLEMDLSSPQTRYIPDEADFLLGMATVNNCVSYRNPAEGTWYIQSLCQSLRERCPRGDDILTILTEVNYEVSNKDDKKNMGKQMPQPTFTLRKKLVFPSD

[2] = test system: T2, procaspase-8 F355R, F356N
T2 sequence: T1 sequence with F355R, F356N

procaspase-8 p18 subunit = test system: T3, procaspase-8 p18 subunit
T3 sequence: T1 sequence

Substance	cleavage (autoradiography) [1]	cleavage (autoradiography) [2]	cleavage (LC-MS of the cleaved p18 fragment) (procaspase-8 p18 subunit)
HIV-1 protease	Incubation of wild-type procaspase-8 with HIV protease resulted in a p41 procaspase-8 fragment	an almost negligible amount of cleavage was observed when procaspase-8 F355R, F356N was incubated with HIV protease	This fragment had a weight of 16158 mass units (cleaved form)
renin	another aspartyl protease, renin, did not cause procaspase 8 cleavage	–	–
